# T1: human collagen III (human, UniProt P02461 154-1221)
# T1 chain: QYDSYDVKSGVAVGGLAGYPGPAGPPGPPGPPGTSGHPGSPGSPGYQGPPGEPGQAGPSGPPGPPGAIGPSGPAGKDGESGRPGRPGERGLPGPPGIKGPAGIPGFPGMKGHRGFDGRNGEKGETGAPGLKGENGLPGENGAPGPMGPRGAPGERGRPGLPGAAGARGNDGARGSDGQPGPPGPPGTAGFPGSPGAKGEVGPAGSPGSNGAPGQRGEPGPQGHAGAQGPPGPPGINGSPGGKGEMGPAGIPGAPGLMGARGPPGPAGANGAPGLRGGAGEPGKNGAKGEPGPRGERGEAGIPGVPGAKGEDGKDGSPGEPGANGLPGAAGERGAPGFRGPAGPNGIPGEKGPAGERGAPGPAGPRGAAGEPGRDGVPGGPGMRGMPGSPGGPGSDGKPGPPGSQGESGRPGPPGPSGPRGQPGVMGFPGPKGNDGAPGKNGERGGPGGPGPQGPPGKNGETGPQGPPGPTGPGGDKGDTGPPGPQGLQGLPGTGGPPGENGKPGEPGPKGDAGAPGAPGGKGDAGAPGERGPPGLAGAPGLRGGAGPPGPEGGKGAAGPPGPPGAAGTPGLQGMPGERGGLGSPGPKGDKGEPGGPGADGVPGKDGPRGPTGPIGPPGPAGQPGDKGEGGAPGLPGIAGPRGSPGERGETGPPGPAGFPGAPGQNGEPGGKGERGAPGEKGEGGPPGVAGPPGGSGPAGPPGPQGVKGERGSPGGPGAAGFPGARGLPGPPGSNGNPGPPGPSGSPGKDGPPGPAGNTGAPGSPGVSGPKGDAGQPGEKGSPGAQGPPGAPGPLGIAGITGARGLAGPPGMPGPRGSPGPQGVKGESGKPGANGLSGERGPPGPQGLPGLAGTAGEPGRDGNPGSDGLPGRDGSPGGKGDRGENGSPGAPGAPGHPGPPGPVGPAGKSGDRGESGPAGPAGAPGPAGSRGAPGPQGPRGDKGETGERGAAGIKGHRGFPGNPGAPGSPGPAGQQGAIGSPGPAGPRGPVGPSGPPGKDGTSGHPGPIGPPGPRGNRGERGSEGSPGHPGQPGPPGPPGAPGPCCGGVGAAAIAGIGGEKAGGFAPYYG
# T2: rat collagen III (rat, UniProt P13941 155-1218)
# T2 chain: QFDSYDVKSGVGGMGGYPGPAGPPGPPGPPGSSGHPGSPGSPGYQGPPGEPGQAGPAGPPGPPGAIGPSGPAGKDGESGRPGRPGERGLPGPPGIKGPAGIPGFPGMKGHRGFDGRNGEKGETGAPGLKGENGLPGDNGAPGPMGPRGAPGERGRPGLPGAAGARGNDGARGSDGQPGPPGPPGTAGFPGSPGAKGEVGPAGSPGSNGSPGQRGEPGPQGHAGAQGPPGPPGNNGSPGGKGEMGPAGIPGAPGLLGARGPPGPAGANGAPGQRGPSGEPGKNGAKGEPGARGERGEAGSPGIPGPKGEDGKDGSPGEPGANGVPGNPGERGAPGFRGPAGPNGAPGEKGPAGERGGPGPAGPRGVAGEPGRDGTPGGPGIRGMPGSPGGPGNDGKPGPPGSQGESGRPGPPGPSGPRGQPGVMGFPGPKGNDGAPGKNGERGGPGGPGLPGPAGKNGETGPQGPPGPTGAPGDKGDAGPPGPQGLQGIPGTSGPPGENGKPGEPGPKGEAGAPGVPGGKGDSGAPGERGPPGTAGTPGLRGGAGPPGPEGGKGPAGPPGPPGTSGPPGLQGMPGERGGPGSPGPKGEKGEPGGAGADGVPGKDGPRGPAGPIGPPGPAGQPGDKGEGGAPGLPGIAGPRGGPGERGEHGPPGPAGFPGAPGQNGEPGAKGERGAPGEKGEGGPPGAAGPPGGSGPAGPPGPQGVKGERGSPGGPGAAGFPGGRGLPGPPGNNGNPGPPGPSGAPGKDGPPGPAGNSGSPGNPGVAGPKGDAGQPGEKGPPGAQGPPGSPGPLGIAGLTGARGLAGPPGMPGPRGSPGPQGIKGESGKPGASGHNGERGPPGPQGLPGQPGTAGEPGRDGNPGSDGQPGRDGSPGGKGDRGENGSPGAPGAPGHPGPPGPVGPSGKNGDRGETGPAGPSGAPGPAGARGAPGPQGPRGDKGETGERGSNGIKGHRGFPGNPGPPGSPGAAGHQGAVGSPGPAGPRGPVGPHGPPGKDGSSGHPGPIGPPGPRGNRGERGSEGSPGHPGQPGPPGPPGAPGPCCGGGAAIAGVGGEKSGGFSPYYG
# Experiments:
# human collagen I [1] = biological target: T3, human collagen I (human, UniProt P02452 162-1218; P08123 80-1119); experiment: BLI; apparent KD, analysis by binding sites/mol
# T3 sequence (P02452 162-1218, chain 1 of 2): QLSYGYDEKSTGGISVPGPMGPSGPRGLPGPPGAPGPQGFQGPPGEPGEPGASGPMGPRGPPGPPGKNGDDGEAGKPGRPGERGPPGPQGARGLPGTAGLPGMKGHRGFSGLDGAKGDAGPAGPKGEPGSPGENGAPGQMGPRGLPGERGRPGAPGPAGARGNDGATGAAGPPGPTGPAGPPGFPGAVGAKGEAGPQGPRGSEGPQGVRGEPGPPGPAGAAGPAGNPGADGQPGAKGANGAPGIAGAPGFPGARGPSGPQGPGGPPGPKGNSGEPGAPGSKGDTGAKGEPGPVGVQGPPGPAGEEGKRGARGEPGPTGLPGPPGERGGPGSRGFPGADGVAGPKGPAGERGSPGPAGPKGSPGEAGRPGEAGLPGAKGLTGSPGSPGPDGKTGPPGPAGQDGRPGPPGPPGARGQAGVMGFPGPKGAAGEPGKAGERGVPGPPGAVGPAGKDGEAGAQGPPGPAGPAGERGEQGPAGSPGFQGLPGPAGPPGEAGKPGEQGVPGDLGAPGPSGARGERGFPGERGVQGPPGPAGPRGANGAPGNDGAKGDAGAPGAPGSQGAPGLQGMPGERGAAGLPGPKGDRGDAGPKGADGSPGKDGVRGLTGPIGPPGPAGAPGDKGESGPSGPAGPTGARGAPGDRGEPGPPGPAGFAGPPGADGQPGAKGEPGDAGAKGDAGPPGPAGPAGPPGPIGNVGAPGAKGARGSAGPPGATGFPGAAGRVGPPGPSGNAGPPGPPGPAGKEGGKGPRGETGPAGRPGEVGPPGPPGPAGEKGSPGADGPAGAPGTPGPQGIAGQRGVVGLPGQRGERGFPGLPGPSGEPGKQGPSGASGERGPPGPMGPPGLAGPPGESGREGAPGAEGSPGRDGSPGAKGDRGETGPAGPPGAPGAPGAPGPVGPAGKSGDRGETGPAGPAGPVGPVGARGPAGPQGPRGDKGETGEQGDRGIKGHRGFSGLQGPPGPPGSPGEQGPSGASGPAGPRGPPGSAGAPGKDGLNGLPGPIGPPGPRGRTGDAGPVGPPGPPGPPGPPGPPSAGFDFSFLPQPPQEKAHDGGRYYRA
# T3 sequence (P08123 80-1119, chain 2 of 2): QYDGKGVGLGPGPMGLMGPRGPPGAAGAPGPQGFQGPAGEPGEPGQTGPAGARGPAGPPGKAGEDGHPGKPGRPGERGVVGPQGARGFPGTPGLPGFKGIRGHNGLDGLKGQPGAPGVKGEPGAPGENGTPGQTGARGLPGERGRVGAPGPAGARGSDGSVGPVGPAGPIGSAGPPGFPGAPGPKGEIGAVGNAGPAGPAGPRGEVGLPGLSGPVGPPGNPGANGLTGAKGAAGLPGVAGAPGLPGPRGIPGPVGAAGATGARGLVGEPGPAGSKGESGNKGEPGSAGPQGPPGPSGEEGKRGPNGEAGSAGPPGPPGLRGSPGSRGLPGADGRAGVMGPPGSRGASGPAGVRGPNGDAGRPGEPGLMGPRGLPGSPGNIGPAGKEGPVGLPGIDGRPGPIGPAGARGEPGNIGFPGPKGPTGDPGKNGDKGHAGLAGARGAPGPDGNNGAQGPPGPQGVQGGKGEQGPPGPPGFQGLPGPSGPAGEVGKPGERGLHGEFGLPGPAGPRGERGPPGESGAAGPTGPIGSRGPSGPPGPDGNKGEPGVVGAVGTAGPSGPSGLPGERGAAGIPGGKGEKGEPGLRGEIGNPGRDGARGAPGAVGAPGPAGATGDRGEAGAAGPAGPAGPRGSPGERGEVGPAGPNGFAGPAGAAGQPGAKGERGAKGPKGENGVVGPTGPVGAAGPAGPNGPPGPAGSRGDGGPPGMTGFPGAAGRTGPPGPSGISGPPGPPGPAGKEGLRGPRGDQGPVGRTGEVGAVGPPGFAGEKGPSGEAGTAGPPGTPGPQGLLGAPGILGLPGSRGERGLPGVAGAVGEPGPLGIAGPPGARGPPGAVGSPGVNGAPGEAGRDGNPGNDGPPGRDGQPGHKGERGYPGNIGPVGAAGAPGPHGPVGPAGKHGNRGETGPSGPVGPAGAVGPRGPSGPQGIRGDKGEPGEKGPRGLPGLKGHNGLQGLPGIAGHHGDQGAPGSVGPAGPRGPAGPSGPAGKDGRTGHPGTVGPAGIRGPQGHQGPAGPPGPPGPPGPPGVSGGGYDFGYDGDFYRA
# mouse collagen I [2] = biological target: T4, mouse collagen I (mouse, UniProt P11087 152-1207; Q01149 86-1125); experiment: BLI; apparent KD, analysis by binding sites/mol
# T4 sequence (P11087 152-1207, chain 1 of 2): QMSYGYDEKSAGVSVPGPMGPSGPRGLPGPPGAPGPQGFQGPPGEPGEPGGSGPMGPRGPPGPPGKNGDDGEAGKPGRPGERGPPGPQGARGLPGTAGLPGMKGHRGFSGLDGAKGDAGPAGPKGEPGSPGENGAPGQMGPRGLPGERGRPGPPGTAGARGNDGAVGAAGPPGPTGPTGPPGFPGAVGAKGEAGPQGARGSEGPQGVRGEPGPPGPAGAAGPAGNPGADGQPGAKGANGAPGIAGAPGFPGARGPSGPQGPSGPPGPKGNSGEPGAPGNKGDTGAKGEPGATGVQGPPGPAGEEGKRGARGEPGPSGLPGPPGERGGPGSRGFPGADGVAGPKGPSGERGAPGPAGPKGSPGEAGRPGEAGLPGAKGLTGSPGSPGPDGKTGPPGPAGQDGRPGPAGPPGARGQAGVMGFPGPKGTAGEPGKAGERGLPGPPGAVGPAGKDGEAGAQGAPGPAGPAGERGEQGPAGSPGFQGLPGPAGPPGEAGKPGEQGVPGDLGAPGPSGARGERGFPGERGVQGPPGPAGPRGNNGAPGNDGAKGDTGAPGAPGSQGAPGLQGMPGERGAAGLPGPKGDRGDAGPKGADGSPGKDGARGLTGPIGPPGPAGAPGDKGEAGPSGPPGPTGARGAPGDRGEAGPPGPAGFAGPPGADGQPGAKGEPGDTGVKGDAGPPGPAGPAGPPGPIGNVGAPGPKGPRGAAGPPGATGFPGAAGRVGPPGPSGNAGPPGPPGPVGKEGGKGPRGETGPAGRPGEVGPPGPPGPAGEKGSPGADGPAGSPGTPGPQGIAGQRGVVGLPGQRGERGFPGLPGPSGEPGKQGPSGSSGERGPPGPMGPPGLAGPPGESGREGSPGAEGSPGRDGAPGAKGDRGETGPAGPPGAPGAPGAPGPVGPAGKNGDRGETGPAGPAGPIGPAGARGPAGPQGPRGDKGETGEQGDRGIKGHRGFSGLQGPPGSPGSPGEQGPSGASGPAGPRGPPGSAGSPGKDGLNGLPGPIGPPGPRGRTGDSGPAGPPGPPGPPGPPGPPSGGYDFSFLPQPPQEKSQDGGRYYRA
# T4 sequence (Q01149 86-1125, chain 2 of 2): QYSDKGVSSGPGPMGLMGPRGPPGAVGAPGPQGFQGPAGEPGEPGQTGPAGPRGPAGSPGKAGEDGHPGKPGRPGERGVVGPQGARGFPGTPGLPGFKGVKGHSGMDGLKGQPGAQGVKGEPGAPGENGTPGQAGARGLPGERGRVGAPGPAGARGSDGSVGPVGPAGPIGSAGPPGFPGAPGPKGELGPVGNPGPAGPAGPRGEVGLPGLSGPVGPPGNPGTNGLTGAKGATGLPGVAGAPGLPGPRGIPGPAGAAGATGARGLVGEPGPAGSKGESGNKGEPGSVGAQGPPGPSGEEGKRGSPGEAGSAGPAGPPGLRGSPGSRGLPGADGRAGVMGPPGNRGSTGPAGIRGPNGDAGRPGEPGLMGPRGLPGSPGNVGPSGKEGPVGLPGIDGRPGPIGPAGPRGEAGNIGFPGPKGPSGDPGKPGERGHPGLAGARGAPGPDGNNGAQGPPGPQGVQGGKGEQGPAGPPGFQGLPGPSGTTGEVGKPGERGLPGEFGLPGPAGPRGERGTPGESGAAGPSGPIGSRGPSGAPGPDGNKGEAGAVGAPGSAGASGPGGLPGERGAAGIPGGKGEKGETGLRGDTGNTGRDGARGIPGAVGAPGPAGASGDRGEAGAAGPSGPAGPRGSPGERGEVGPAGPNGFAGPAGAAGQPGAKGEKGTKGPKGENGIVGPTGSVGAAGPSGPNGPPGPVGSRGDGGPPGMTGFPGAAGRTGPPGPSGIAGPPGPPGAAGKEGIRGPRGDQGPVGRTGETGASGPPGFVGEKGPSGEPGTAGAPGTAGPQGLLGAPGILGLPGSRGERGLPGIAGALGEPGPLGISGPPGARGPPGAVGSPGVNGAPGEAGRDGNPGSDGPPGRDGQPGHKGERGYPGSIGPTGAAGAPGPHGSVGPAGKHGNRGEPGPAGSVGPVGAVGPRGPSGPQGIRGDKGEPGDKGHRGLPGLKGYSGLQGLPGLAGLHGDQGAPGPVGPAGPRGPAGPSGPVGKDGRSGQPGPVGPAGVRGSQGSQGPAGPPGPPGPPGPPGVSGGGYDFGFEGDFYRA
# human collagen III [3] = biological target: T1, human collagen III; experiment: BLI; apparent KD, analysis by binding sites/mol
# rat collagen III [4] = biological target: T2, rat collagen III; experiment: BLI; apparent KD, analysis by binding sites/mol
# rat collagen I [5] = biological target: T5, rat collagen I (rat, UniProt P02454 152-1207; P02466 86-1125); experiment: BLI; apparent KD, analysis by binding sites/mol
# human collagen I [6] = biological target: T3, human collagen I; experiment: BLI; analysis by molarity
# mouse collagen I [7] = biological target: T4, mouse collagen I; experiment: BLI; analysis by molarity
# human collagen III [8] = biological target: T1, human collagen III; experiment: BLI; analysis by molarity
# rat collagen III [9] = biological target: T2, rat collagen III; experiment: BLI; analysis by molarity
# rat collagen I [10] = biological target: T5, rat collagen I; experiment: BLI; analysis by molarity
# human collagen I [11] = biological target: T3, human collagen I; experiment: BLI; apparent KD (avidity), analysis by molarity
# mouse collagen I [12] = biological target: T4, mouse collagen I; experiment: BLI; apparent KD (avidity), analysis by molarity
# human collagen III [13] = biological target: T1, human collagen III; experiment: BLI; apparent KD (avidity), analysis by molarity
# rat collagen III [14] = biological target: T2, rat collagen III; experiment: BLI; apparent KD (avidity), analysis by molarity
# rat collagen I [15] = biological target: T5, rat collagen I; experiment: BLI; apparent KD (avidity), analysis by molarity
# human collagen I [16] = biological target: T3, human collagen I; experiment: BLI; analysis by binding sites/mol
# mouse collagen I [17] = biological target: T4, mouse collagen I; experiment: BLI; analysis by binding sites/mol
# human collagen III [18] = biological target: T1, human collagen III; experiment: BLI; analysis by binding sites/mol
# rat collagen III [19] = biological target: T2, rat collagen III; experiment: BLI; analysis by binding sites/mol
# rat collagen I [20] = biological target: T5, rat collagen I; experiment: BLI; analysis by binding sites/mol
binder,measurement,setting,value
"NC410, LAIR-2 human IgG1 Fc fusion protein (Fc fusion) QEGALPRPSISAEPGTVISPGSHVTFMCRGPVGVQTFRLEREDRAKYKDSYNVFRLGPSESEARFHIDSVSEGNAGLYRCLYYKPPGWSEHSDFLELLVKESSGGPDSPDTEPGSSAGTVPGTEASGFDAP",Kd,human collagen I [1],17.2 nM
same,Kd,mouse collagen I [2],12.5 nM
same,Kd,human collagen III [3],47 nM
same,Kd,rat collagen III [4],115 nM
same,Kd,rat collagen I [5],3.74 nM
same,koff,human collagen I [6],0.000186 s⁻¹
same,koff,mouse collagen I [7],0.000194 s⁻¹
same,koff,human collagen III [8],0.000241 s⁻¹
same,koff,rat collagen III [9],0.000433 s⁻¹
same,koff,rat collagen I [10],0.000241 s⁻¹
same,Kd,human collagen I [11],0.126 nM
same,Kd,mouse collagen I [12],0.0918 nM
same,Kd,human collagen III [13],0.51 nM
same,Kd,rat collagen III [14],0.878 nM
same,Kd,rat collagen I [15],0.0387 nM
same,koff,human collagen I [16],0.000184 s⁻¹
same,koff,mouse collagen I [17],0.000194 s⁻¹
same,koff,human collagen III [18],0.000241 s⁻¹
same,koff,rat collagen III [19],0.000432 s⁻¹
same,koff,rat collagen I [20],0.000241 s⁻¹

# Reference: paper doi:10.1101/2020.10.21.349480 (2020)
